# Positions count from the first letter of the chain named.
# B1: recombinant human CD70 (Flag-TNC-CD70) (ligand, UniProt P32970 39-193, looked up)
# chain: QRFAQAQQQLPLESLGWDVAELQLNHTGPQQDPRLYWQGGPALGRSFLHGPELDKGQLRIHRDGIYMVHIQVTLAICSSTTASRHHPTTLAVGICSPASRSISLLRLSFHQGCTIASQRLTPLARGDTLCTNLTGTLLPSRNTDETFFGVQWVRP
# notes: extracellular domain; Captured by anti-Flag mAb in ELISA; as 'recombinant human CD70' immobilised on Biacore CM5 chips; TNC is for trimerisation; also called recombinant CD70; human recombinant CD70; not shown: Flag tag and TNC trimerisation domain
# B2: recombinant human CD27 Fc chimera (CD27-Fc) (Fc fusion, UniProt P26842 21-192, looked up)
# chain: TPAPKSCPERHYWAQGKLCCQMCEPGTFLVKDCDQHRKAAQCDPCIPGVSFSPDHHTRPHCESCRHCNSGLLVRNCTITANAECACRNGWQCRDKECTECDPLPNPSLTARSSQALSPHPQPTHLPYVSEMLEARTAGHMQTLADFRQLPARTLSTHWPPQRSLCSSDFIRI
# notes: Bought reagent; also called recombinant CD27-Fc; Fc part of the bought chimera not given
# Columns and labels:
# [1] = biological target: T1, CD27 (UniProt P26842 21-192, limits assumed); test: Biacore; recombinant human CD70 on CM5 chip; CD27 injected
# T1 sequence (looked up): B2 chain
# Method: (§1) Off-rates of the purified llama-derived anti-CD70 blocking Fabs were determined using the Biacore. Recombinant human CD70 was immobilized on a CM5 Biacore chip. The immobilization was performed in accordance with a method provided by Biacore and by using the NHS/EDC kit (Biacore AB): after activation of the chip, a solution of 50 μg/ml of recombinant CD70 in 10 mM acetate buffer with pH of 5 was prepared and 1 μl of this solution (50ng) was injected resulting in a surface density of approximately 1000 RU.
# (§2) Fabs for the CD70 mAbs ARGX-110, MDX2H5 and SGN70 were prepared by […] digestion (SGN70 and MDX69A7 are described elsewhere herein, MDX2H5, also referred to as MDX1411, is described in WO2008/074004 FIGS. 1A and 1B). Fabs, at a concentration of approximately 100-400 μg/ml, were diluted 6-fold in hepes-buffered saline (0.1M Hepes, 1.5M NaCl, 30 mM EDTA, 0.5% v/v surfactant P20). They were injected (30 μl) and passed through the flow cells at a flow rate of 30 μl/min. After binding of the Fab to CD70, the off-rate was monitored for a period of 10 minutes. After the dissociation, the flow cell surfaces were regenerated by injecting 5 μl of 10 mM NaOH. Sometimes multiple injections of NaOH were needed to regenerate the surfaces depending on the affinity of the Fabs. […] Moreover, the off-rate of CD27 for CD70 was determined as well.
# [2] = biological target: B2; test: Biacore off-rate analysis, CD27 passed over coated CD70
# Method: as §1, §2
# [3] = biological target: T2, human-mouse CD70 chimera chim-2.1 (Flag-TNC-CD70) (Soluble homotrimer held by the TNC domain; one CD70 ECD chain is given.); test: ELISA; chimera captured by anti-Flag mAb; anti-human-Fc-HRP
# T2 construct: also called chimera 2.1; not shown: N-terminal Flag tag, TNC (tenascin-C) trimerisation domain and any linkers of the Flag-TNC-CD70 construct
# T2 chain: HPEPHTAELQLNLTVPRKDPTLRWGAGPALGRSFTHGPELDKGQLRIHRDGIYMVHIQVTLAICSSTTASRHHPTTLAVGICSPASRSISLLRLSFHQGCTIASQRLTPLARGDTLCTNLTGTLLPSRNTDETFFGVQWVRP
# Method: (§3) A Maxisorb (Nunc) microtiter plate was coated with 3.5 μg/ml mouse M2 anti-Flag mAb (Sigma Aldrich, F3165) and the different chimeras were captured. A dilution series of the CD70 mAbs to be tested was applied starting at a concentration of 10 μg/ml and making 3-fold dilutions. After 2 hours, binding was detected using anti-human-Fc-HRP at a 16000-fold dilution. Staining was done with ABTS and OD at 405 nm was measured. As a positive control, CD27-Fc was applied which is able to bind to both human and mouse CD70 with good affinity as well as to the chimeric human-mouse CD70 variants.
# [4] = biological target: T3, human-mouse CD70 chimera chim-1 (Flag-TNC-CD70) (Homo sapiens (Human), UniProt P32970 58-193, Soluble homotrimer held by the TNC domain; one CD70 ECD chain is given.); test: as above
# T3 construct: also called chimera 1; not shown: N-terminal Flag tag, TNC (tenascin-C) trimerisation domain and any linkers of the Flag-TNC-CD70 construct
# T3 chain: T2 chain with T35L
# Method: as §3
# [5] = biological target: T4, human-mouse CD70 chimera chim-2 (Flag-TNC-CD70); test: as above
# T4 construct: also called chimera 2
# T4 chain: T2 chain with D41E, K42E, Q44H, R49Q, I52L, M54R, V55L, I63N
# Method: as §3
# [6] = biological target: T5, human-mouse CD70 chimera chim-3 (Flag-TNC-CD70); test: as above
# T5 construct: also called chimera 3
# T5 chain: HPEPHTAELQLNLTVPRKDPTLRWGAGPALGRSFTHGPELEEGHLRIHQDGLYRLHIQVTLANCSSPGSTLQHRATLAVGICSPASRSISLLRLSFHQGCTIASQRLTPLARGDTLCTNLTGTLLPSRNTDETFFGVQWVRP
# Method: as §3
# [7] = biological target: T6, human-mouse CD70 chimera chim-2.2 (Flag-TNC-CD70); test: as above
# T6 construct: also called chimera 2.2; not shown: N-terminal Flag tag, TNC trimerisation domain and any linkers of the Flag-TNC-CD70 construct
# T6 chain: T2 chain with D41E, K42E, Q44H
# Method: as §3
# [8] = biological target: T7, human-mouse CD70 chimera chim-4 (Flag-TNC-CD70) (Mus musculus (Mouse), UniProt O55237 54-192); test: as above
# T7 construct: also called chimera 4
# T7 chain: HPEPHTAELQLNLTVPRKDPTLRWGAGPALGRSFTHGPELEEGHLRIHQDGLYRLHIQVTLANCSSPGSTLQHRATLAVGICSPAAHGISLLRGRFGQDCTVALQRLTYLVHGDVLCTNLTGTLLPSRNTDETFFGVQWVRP
# Method: as §3
# [9] = biological target: T8, human-mouse CD70 chimera chim-2.4 (Flag-TNC-CD70); test: as above
# T8 construct: also called chimera 2.4
# T8 chain: T2 chain with D41E, K42E, Q44H, R49Q, I52L, M54R, V55L
# Method: as §3
# [10] = biological target: B1; test: ELISA; Flag-TNC-CD70 captured by anti-Flag mAb; anti-human-Fc-HRP
# Method: as §3
# [11] = biological target: T9, mouse Flag-TNC-CD70 (mouse, UniProt O55237 45-195); test: ELISA; mouse Flag-TNC-CD70 captured by anti-Flag mAb; anti-human-Fc-HRP
# T9 construct: extracellular domain; also called mouse CD70; not shown: Flag tag and TNC trimerisation domain
# T9 sequence (looked up): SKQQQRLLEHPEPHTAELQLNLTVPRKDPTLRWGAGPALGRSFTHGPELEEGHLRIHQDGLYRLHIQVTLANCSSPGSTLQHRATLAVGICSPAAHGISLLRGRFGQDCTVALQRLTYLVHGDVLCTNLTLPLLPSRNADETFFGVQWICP
# Method: as §3
Binder,koff [1] [s⁻¹],koff [2] [s⁻¹],EC50 [3] [µg/mL],EC50 [4] [µg/mL],EC50 [5] [µg/mL],EC50 [6] [µg/mL],EC50 [7] [µg/mL],EC50 [8] [µg/mL],EC50 [9] [µg/mL],EC50 [10] [µg/mL],EC50 [11] [µg/mL]
B1,8e-05,8e-05,,,,,,,,,
B2,,,0.051,0.159,0.099,0.094,0.056,0.051,0.076,0.079,0.041

# — patent publication US20150266963A1 (ARGEN X B V, published 2015)
